# From the MegaScale stability set (Tsuboyama et al. 2023)
# B1: HEEH_KT_rd6_0007 (parent)
# chain: SIEEEIKKAEEAKEKGKTFIHGDFVATTEELLDELLKRLRKKL
# Variants of: B1
# Assay: folding stability dG (cDNA display proteolysis); higher = more stable
# Conditions: PBS, room temperature
row,Variant,folding stability dG [kcal/mol]
1,SIEEEIKKAEEAKEKGWTFIHGDFVATTEELLDELLKRLRKKL [K17W],1.84
2,SIEEEIKKAEEAKEKGDTFIHGDFVATTEELLDELLKRLRKKL [K17D],1.19
3,SIEEEIKKAEEAKEKGITFIHGDFVATTEELLDELLKRLRKKL [K17I],1.59
4,SIEEEIKKAEEAKEKGATFIHGDFVATTEELLDELLKRLRKKL [K17A],1.23
5,SIEEEIKKAEEAKEKGTTFIHGDFVATTEELLDELLKRLRKKL [K17T],1.43
6,SIEEEIKKAEEAKEKGETFIHGDFVATTEELLDELLKRLRKKL [K17E],1.67
7,SIEEEIKKAEEAKEKGRTFIHGDFVATTEELLDELLKRLRKKL [K17R],1.13
8,SIEEEIKKAEEAKEKGFTFIHGDFVATTEELLDELLKRLRKKL [K17F],1.82
9,SIEEEIKKAEEAKEKGCTFIHGDFVATTEELLDELLKRLRKKL [K17C],2.53
10,SIEEEIKKAEEAKEKGMTFIHGDFVATTEELLDELLKRLRKKL [K17M],1.66
11,SIEEEIKKAEEAKEKGYTFIHGDFVATTEELLDELLKRLRKKL [K17Y],1.71
12,SIEEEIKKAEEAKEKGNTFIHGDFVATTEELLDELLKRLRKKL [K17N],1.36
13,SIEEEIKKAEEAKEKGLTFIHGDFVATTEELLDELLKRLRKKL [K17L],1.9
14,SIEEEIKKAEEAKEKGPTFIHGDFVATTEELLDELLKRLRKKL [K17P],0.793
15,SIEEEIKKAEEAKEKGHTFIHGDFVATTEELLDELLKRLRKKL [K17H],1.44
16,SIEEEIKKAEEAKEKGVTFIHGDFVATTEELLDELLKRLRKKL [K17V],1.43
17,SIEEEIKKAEEAKEKGQTFIHGDFVATTEELLDELLKRLRKKL [K17Q],1.47
18,SIEEEIKKAEEAKEKGGTFIHGDFVATTEELLDELLKRLRKKL [K17G],1.48
19,SIEEEIKKAEEAKEKGSTFIHGDFVATTEELLDELLKRLRKKL [K17S],1.18
20,SIEEEIKKAEETKEKGKTFIHGDFVATTEELLDELLKRLRKKL [A12T],0.618
21,SIEEEIKKAEEYKEKGKTFIHGDFVATTEELLDELLKRLRKKL [A12Y],0.791
22,SIEEEIKKAEERKEKGKTFIHGDFVATTEELLDELLKRLRKKL [A12R],0.639
23,SIEEEIKKAEEQKEKGKTFIHGDFVATTEELLDELLKRLRKKL [A12Q],0.606
24,SIEEEIKKAEEKKEKGKTFIHGDFVATTEELLDELLKRLRKKL [A12K],0.526

row,Variant,folding stability dG [kcal/mol]
1,SIEEEIKKAEEPKEKGKTFIHGDFVATTEELLDELLKRLRKKL [A12P],0.459
2,SIEEEIKKAEESKEKGKTFIHGDFVATTEELLDELLKRLRKKL [A12S],0.754
3,SIEEEIKKAEENKEKGKTFIHGDFVATTEELLDELLKRLRKKL [A12N],0.603
4,SIEEEIKKAEEWKEKGKTFIHGDFVATTEELLDELLKRLRKKL [A12W],0.691
5,SIEEEIKKAEEMKEKGKTFIHGDFVATTEELLDELLKRLRKKL [A12M],0.749
6,SIEEEIKKAEEIKEKGKTFIHGDFVATTEELLDELLKRLRKKL [A12I],0.771
7,SIEEEIKKAEEHKEKGKTFIHGDFVATTEELLDELLKRLRKKL [A12H],0.753
8,SIEEEIKKAEELKEKGKTFIHGDFVATTEELLDELLKRLRKKL [A12L],0.688
9,SIEEEIKKAEEVKEKGKTFIHGDFVATTEELLDELLKRLRKKL [A12V],0.505
10,SIEEEIKKAEEAKEKGKHFIHGDFVATTEELLDELLKRLRKKL [T18H],1.16
11,SIEEEIKKAEEAKEKGKMFIHGDFVATTEELLDELLKRLRKKL [T18M],1.32
12,SIEEEIKKAEEAKEKGKGFIHGDFVATTEELLDELLKRLRKKL [T18G],1.23
13,SIEEEIKKAEEAKEKGKAFIHGDFVATTEELLDELLKRLRKKL [T18A],1.3
14,SIEEEIKKAEEAKEKGKFFIHGDFVATTEELLDELLKRLRKKL [T18F],1.3
15,SIEEEIKKAEEAKEKGKDFIHGDFVATTEELLDELLKRLRKKL [T18D],0.988
16,SIEEEIKKAEEAKEKGKPFIHGDFVATTEELLDELLKRLRKKL [T18P],1.32
17,SIEEEIKKAEEAKEKGKNFIHGDFVATTEELLDELLKRLRKKL [T18N],1.07
18,SIEEEIKKAEEAKEKGKKFIHGDFVATTEELLDELLKRLRKKL [T18K],1.1
19,SIEEEIKKAEEAKEKGKEFIHGDFVATTEELLDELLKRLRKKL [T18E],1.12
20,SIEEEIKKAEEAKEKGKIFIHGDFVATTEELLDELLKRLRKKL [T18I],1.67
21,SIEEEIKKAEEAKEKGKLFIHGDFVATTEELLDELLKRLRKKL [T18L],1.07
22,SIEEEIKKAEEAKEYGKTFIHGDFVATTEELLDELLKRLRKKL [K15Y],1.13
23,SIEEEIKKAEEAKEGGKTFIHGDFVATTEELLDELLKRLRKKL [K15G],1.08
24,SIEEEIKKAEEAKEDGKTFIHGDFVATTEELLDELLKRLRKKL [K15D],0.807

row,Variant,folding stability dG [kcal/mol]
1,SIEEEIKKAEEAKEWGKTFIHGDFVATTEELLDELLKRLRKKL [K15W],1.07
2,SIEEEIKKAEEAKEMGKTFIHGDFVATTEELLDELLKRLRKKL [K15M],1.37
3,SIEEEIKKAEEAKERGKTFIHGDFVATTEELLDELLKRLRKKL [K15R],1.19
4,SIEEEIKKAEEAKEEGKTFIHGDFVATTEELLDELLKRLRKKL [K15E],0.916
5,SIEEEIKKAEEAKEPGKTFIHGDFVATTEELLDELLKRLRKKL [K15P],0.667
6,SIEEEIKKAEEAKEIGKTFIHGDFVATTEELLDELLKRLRKKL [K15I],0.793
7,SIEEEIKKAEEAKEQGKTFIHGDFVATTEELLDELLKRLRKKL [K15Q],1.4
8,SIEEEIKKAEEAKEHGKTFIHGDFVATTEELLDELLKRLRKKL [K15H],1.3
9,SIEEEIKKAEEAKESGKTFIHGDFVATTEELLDELLKRLRKKL [K15S],1.19
10,SIEEEIKKAEEAKEAGKTFIHGDFVATTEELLDELLKRLRKKL [K15A],1.33
11,SIEEEIKKAEEAKELGKTFIHGDFVATTEELLDELLKRLRKKL [K15L],1.4
12,SIEEEIKKAEEAKEFGKTFIHGDFVATTEELLDELLKRLRKKL [K15F],1.15
13,SIEEEIKKAEEAKENGKTFIHGDFVATTEELLDELLKRLRKKL [K15N],1.32
14,SIEEEIKKAEEAKEVGKTFIHGDFVATTEELLDELLKRLRKKL [K15V],0.735
15,SIEEEIKKAEEAKETGKTFIHGDFVATTEELLDELLKRLRKKL [K15T],1.29
16,SIEEEIKKAEEALEKGKTFIHGDFVATTEELLDELLKRLRKKL [K13L],1.16
17,SIEEEIKKAEEAAEKGKTFIHGDFVATTEELLDELLKRLRKKL [K13A],0.86
18,SIEEEIKKAEEAMEKGKTFIHGDFVATTEELLDELLKRLRKKL [K13M],1.01
19,SIEEEIKKAEEAYEKGKTFIHGDFVATTEELLDELLKRLRKKL [K13Y],1.07
20,SIEEEIKKAEEAWEKGKTFIHGDFVATTEELLDELLKRLRKKL [K13W],1.09
21,SIEEEIKKAEEAGEKGKTFIHGDFVATTEELLDELLKRLRKKL [K13G],0.684
22,SIEEEIKKAEEAQEKGKTFIHGDFVATTEELLDELLKRLRKKL [K13Q],0.869
23,SIEEEIKKAEEAVEKGKTFIHGDFVATTEELLDELLKRLRKKL [K13V],0.79
24,SIEEEIKKAEEADEKGKTFIHGDFVATTEELLDELLKRLRKKL [K13D],0.676

row,Variant,folding stability dG [kcal/mol]
1,SIEEEIKKAEEAPEKGKTFIHGDFVATTEELLDELLKRLRKKL [K13P],0.543
2,SIEEEIKKAEEANEKGKTFIHGDFVATTEELLDELLKRLRKKL [K13N],0.575
3,SIEEEIKKAEEATEKGKTFIHGDFVATTEELLDELLKRLRKKL [K13T],0.5
4,SIEEEIKKAEEAREKGKTFIHGDFVATTEELLDELLKRLRKKL [K13R],1.3
5,SIEEEIKKAEEACEKGKTFIHGDFVATTEELLDELLKRLRKKL [K13C],1.82
6,SIEEEIKKAEEASEKGKTFIHGDFVATTEELLDELLKRLRKKL [K13S],0.704
7,SIEEEIKKAEEAEEKGKTFIHGDFVATTEELLDELLKRLRKKL [K13E],0.58
8,SIEEEIKKAEEAIEKGKTFIHGDFVATTEELLDELLKRLRKKL [K13I],0.852
9,SIEEEIKKAEEAHEKGKTFIHGDFVATTEELLDELLKRLRKKL [K13H],0.747
10,SIEEEIKKAEEAFEKGKTFIHGDFVATTEELLDELLKRLRKKL [K13F],0.912
11,SIEEEIKKAEEAKDKGKTFIHGDFVATTEELLDELLKRLRKKL [E14D],1.1
12,SIEEEIKKAEEAKGKGKTFIHGDFVATTEELLDELLKRLRKKL [E14G],1.19
13,SIEEEIKKAEEAKMKGKTFIHGDFVATTEELLDELLKRLRKKL [E14M],1.42
14,SIEEEIKKAEEAKTKGKTFIHGDFVATTEELLDELLKRLRKKL [E14T],1.3
15,SIEEEIKKAEEAKKKGKTFIHGDFVATTEELLDELLKRLRKKL [E14K],1.56
16,SIEEEIKKAEEAKYKGKTFIHGDFVATTEELLDELLKRLRKKL [E14Y],1.33
17,SIEEEIKKAEEAKWKGKTFIHGDFVATTEELLDELLKRLRKKL [E14W],1.37
18,SIEEEIKKAEEAKHKGKTFIHGDFVATTEELLDELLKRLRKKL [E14H],1.21
19,SIEEEIKKAEEAKIKGKTFIHGDFVATTEELLDELLKRLRKKL [E14I],1.45
20,SIEEEIKKAEEAKSKGKTFIHGDFVATTEELLDELLKRLRKKL [E14S],1.4
21,SIEEEIKKAEEAKAKGKTFIHGDFVATTEELLDELLKRLRKKL [E14A],1.73
22,SIEEEIKKAEEAKRKGKTFIHGDFVATTEELLDELLKRLRKKL [E14R],1.68
23,SIEEEIKKAEEAKLKGKTFIHGDFVATTEELLDELLKRLRKKL [E14L],1.58
24,SIEEEIKKAEEAKQKGKTFIHGDFVATTEELLDELLKRLRKKL [E14Q],1.42

row,Variant,folding stability dG [kcal/mol]
1,SIEEEIKKAEEAKNKGKTFIHGDFVATTEELLDELLKRLRKKL [E14N],1.21
2,SIEEEIKKAEEAKFKGKTFIHGDFVATTEELLDELLKRLRKKL [E14F],1.31
3,SIEEEIKKAEEAKVKGKTFIHGDFVATTEELLDELLKRLRKKL [E14V],1.25
4,SIEEEIKKAEEAKPKGKTFIHGDFVATTEELLDELLKRLRKKL [E14P],0.587
5,SIEEEIKKAEEAKEKQKTFIHGDFVATTEELLDELLKRLRKKL [G16Q],0.935
6,SIEEEIKKAEEAKEKRKTFIHGDFVATTEELLDELLKRLRKKL [G16R],0.873
7,SIEEEIKKAEEAKEKKKTFIHGDFVATTEELLDELLKRLRKKL [G16K],1.3
8,SIEEEIKKAEEAKEKNKTFIHGDFVATTEELLDELLKRLRKKL [G16N],1.08
9,SIEEEIKKAEEAKEKTKTFIHGDFVATTEELLDELLKRLRKKL [G16T],0.757
10,SIEEEIKKAEEAKEKFKTFIHGDFVATTEELLDELLKRLRKKL [G16F],1.2
11,SIEEEIKKAEEAKEKWKTFIHGDFVATTEELLDELLKRLRKKL [G16W],1.3
12,SIEEEIKKAEEAKEKSKTFIHGDFVATTEELLDELLKRLRKKL [G16S],0.957
13,SIEEEIKKAEEAKEKAKTFIHGDFVATTEELLDELLKRLRKKL [G16A],0.667
14,SIEEEIKKAEEAKEKVKTFIHGDFVATTEELLDELLKRLRKKL [G16V],0.73
15,SIEEEIKKAEEAKEKMKTFIHGDFVATTEELLDELLKRLRKKL [G16M],0.701
16,SIEEEIKKAEEAKEKPKTFIHGDFVATTEELLDELLKRLRKKL [G16P],0.298
17,SIEEEIKKAEEAKEKHKTFIHGDFVATTEELLDELLKRLRKKL [G16H],1.25
18,SIEEEIKKAEEAKEKLKTFIHGDFVATTEELLDELLKRLRKKL [G16L],1.22
19,SIEEEIKKAEEAKEKEKTFIHGDFVATTEELLDELLKRLRKKL [G16E],0.895
20,SIEEEIKKAEEAKEKYKTFIHGDFVATTEELLDELLKRLRKKL [G16Y],1.12
21,SIEEEIKKAEEAKEKDKTFIHGDFVATTEELLDELLKRLRKKL [G16D],0.785
22,SIEEEIKKAEEAKEKIKTFIHGDFVATTEELLDELLKRLRKKL [G16I],1.03
